Measurements taken from publication PMC7438317.

Biological target: GST-(PreScission site)-CYK-4 aa 146–190, phosphorylated by PLK-1 (C. elegans)
Assay: pull-down

fold increase in binding against the unphosphorylated WT CYK-4 fragment: 4 fold
Substance: ECT-2 aa 1–320 (ECT-2 BRCT module) (domain or fragment)
